Data as given in US20160257728A1 (JOINT CENTER FOR BIOSCIENCES, published 2016).

T1: BMPRII ECD-Fc (human, UniProt Q13873 27-150, limits assumed)
T1 construct: extracellular domain; Bought from R&D Systems as C-terminal Fc-tagged chimera; not shown: C-terminal human IgG1 Fc tag
T1 sequence (looked up): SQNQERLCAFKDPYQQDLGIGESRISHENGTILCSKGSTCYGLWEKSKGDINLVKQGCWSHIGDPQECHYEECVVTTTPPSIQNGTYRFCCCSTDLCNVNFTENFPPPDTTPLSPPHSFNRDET

T2: ActRIIb ECD-Fc (human, UniProt Q13705 19-137, limits assumed)
T2 construct: extracellular domain; Bought from R&D Systems as C-terminal Fc-tagged chimera; not shown: C-terminal human IgG1 Fc tag
T2 sequence (looked up): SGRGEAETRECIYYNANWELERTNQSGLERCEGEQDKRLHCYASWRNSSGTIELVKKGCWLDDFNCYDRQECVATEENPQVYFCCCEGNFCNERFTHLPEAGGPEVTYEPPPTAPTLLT

T3: BMPRIb (ALK6) ECD-Fc (human, UniProt O00238 14-126)
T3 construct: extracellular domain; Bought from R&D Systems as C-terminal Fc-tagged chimera; not shown: C-terminal human IgG1 Fc tag
T3 sequence (looked up): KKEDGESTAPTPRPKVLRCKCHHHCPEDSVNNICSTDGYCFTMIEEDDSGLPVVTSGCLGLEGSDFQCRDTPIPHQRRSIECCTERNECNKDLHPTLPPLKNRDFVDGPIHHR

B1: MB109 protein (bioactive recombinant human BMP-9 expressed in E. coli and refolded; functional dimer) (ligand)
chain: MSAGAGSHCQKTSLRVNFEDIGWDSWIIAPKEYEAYECKGGCFFPLADDVTPTKHAIVQTLVHLKFPTKVGKACCVPTKLSPISVLYKDDMGVPTLKYHYEGMSVAECGCR
notes: also called purified MB109
B2: ActRIa (ALK2) ECD-Fc (Fc fusion, UniProt Q04771 21-123, looked up)
chain: MEDEKPKVNPKLYMCVCEGLSCGNEDHCEGQQCFSSLSINDGFHVYQKGCFQVYEQGKMTCKTPPSPGQAVECCQGDWCNRNITAQLPTKGKSFPGTQNFHLE
notes: extracellular domain; Bought from R&D Systems as C-terminal Fc-tagged chimera; not shown: C-terminal human IgG1 Fc tag
B3: ActRIb (ALK4) ECD-Fc (Fc fusion, UniProt P36896 24-126, looked up)
chain: SGPRGVQALLCACTSCLQANYTCETDGACMVSIFNLDGMEHHVRTCIPKVELVPAGKPFYCLSSEDLRNTHCCYTDYCNRIDLRVPSGHLKEPEHPSMWGPVE
notes: as for B2
B4: TGF-betaRI (ALK5) ECD-Fc (Fc fusion, UniProt P36897 34-126, looked up)
chain: LQCFCHLCTKDNFTCVTDGLCFVSVTETTDKVIHNSMCIAEIDLIPRDRPFVCAPSSKTGSVTTTYCCNQDHCNKIELPTTVKSSPGLGPVEL
notes: extracellular domain; Bought from R&D Systems as C-terminal Fc-tagged chimera; also called TGFβRI; not shown: C-terminal human IgG1 Fc tag
B5: ALK7 ECD-Fc (Fc fusion, UniProt Q8NER5 22-113, looked up)
chain: LSPGLKCVCLLCDSSNFTCQTEGACWASVMLTNGKEQVIKSCVSLPELNAQVFCHSSNNVTKTECCFTDFCNNITLHLPTASPNAPKLGPME
notes: as for B2

How the values were obtained:
BMPRII ECD-Fc = molecular target: T1, BMPRII ECD-Fc; experiment: SPR (BIAcore 3000), ECD-Fc on CM5 chip, MB109 as analyte, global 1:1 Langmuir with mass transfer
Experimental: (§1) The receptor ECDs were purchased from R&D Systems (Minneapolis, USA) as C-terminal Fc-tagged chimera. The binding affinities were measured using a BIAcore 3000 (GE Healthcare, USA) following a protocol described previously by Allendorph et al. with minor modification (see, e.g., Allendorph et al., Plos One 6(11):e26402 (2011), and Allendorph et al., Proceedings of the National Academy of Sciences of the United States of America 103(20):7643-7648, 2006). In brief, the ECD-Fc proteins were prepared in a pH 4.0 solution and captured on flow cell 2, 3 and 4 of the CM5 sensor chip at a flow rate of 10 μL/min until the density researched ˜1,000 response units. Flow cell 1 was left blank for background subtraction. For kinetic analysis, purified MB109 was prepared in a series of 2-fold dilution in an assay solution (10 mM HEPES, pH 7.4, 150 mM NaCl, 3.4 mM EDTA and 0.005% Tween-20) and injected over the flow cells at a flow rate of […]. All tests were performed using a set of 2-fold diluted protein concentrations from 20 to 0.3 nM plus the assay solution as a blank. The data fitting was performed using a minimum of 4 concentrations and a global 1:1 Langmuir binding with mass transfer model.
(§2) To determine receptor binding specificity of MB109, purified MB109 was subjected to surface plasmon resonance analysis to determine its binding affinities to immobilized extracellular domains (ECDs) of Type I and Type II receptors, including ALK1, ActRIa (ALK2), ActRIb (ALK4), BMPRIa (ALK3), BMPRIb (ALK6), TGFβRI (ALK5), ALK7, ActRIIa, ActRIIb, BMPRII, TGF-βRII and MISRII. Among these receptor ECDs, MB109 had strong binding affinity only to ALK1, ActRIIb and BMPRII, while the binding to the other receptor ECDs were either very transient (to ActRIIa) or non-detectable (see TABLE 2).

ActRIIa ECD-Fc = molecular target: T4, ActRIIa ECD-Fc (human, UniProt P27037 20-135, limits assumed); experiment: as above
T4 construct: extracellular domain; Bought from R&D Systems as C-terminal Fc-tagged chimera; not shown: C-terminal human IgG1 Fc tag
T4 sequence (P27037 20-135 limits assumed): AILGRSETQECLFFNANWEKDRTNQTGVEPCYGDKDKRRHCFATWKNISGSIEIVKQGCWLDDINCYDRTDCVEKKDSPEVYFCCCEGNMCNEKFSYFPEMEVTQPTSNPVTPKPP
Experimental: as §1, §2

ActRIIb ECD-Fc = molecular target: T2, ActRIIb ECD-Fc; experiment: as above
Experimental: as §1, §2

BMPRIb (ALK6) ECD-Fc = molecular target: T3, BMPRIb (ALK6) ECD-Fc; experiment: SPR (BIAcore 3000), ECD-Fc on CM5 chip, MB109 as analyte
Experimental: as §1, §2

BMPRIa (ALK3) ECD-Fc = molecular target: T5, BMPRIa (ALK3) ECD-Fc (human, UniProt P36894 24-152, limits assumed); experiment: as above
T5 construct: extracellular domain; Bought from R&D Systems as C-terminal Fc-tagged chimera; not shown: C-terminal human IgG1 Fc tag
T5 sequence (P36894 24-152 limits assumed): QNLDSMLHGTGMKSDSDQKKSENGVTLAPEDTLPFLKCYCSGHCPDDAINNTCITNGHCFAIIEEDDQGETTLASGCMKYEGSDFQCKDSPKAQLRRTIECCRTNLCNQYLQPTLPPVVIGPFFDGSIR
Experimental: as §1, §2

MISRII ECD-Fc = molecular target: T6, MISRII ECD-Fc (human, UniProt Q16671 18-149, limits assumed); experiment: as above
T6 construct: extracellular domain; Bought from R&D Systems as C-terminal Fc-tagged chimera; not shown: C-terminal human IgG1 Fc tag
T6 sequence (Q16671 18-149 limits assumed): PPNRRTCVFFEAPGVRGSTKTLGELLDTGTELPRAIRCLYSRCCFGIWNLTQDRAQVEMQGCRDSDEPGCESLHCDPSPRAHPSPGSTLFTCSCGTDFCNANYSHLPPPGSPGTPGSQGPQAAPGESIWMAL
Experimental: as §1, §2

TGF-βRII ECD-Fc = molecular target: T7, TGF-βRII ECD-Fc (human, UniProt P37173 23-166); experiment: as above
T7 construct: extracellular domain; Bought from R&D Systems as C-terminal Fc-tagged chimera; not shown: C-terminal human IgG1 Fc tag
T7 sequence (P37173 23-166): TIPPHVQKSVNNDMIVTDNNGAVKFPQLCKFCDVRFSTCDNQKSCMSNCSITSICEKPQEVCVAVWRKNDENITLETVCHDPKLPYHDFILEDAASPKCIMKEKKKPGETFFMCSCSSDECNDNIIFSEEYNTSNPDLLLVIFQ
Experimental: as §1, §2

[1] = molecular target: B1; experiment: as above
Experimental: as §1, §2

## B1
BMPRII ECD-Fc
  Kd: 0.33 nM
  koff: 0.00153 s⁻¹
  kon: 4.63e+06 M⁻¹ s⁻¹
ActRIIa ECD-Fc
  Kd: 4.27 nM
  koff: 0.0121 s⁻¹
  kon: 2.85e+06 M⁻¹ s⁻¹
ActRIIb ECD-Fc
  Kd: 0.154 nM
  koff: 0.00152 s⁻¹
  kon: 9.91e+06 M⁻¹ s⁻¹
BMPRIb (ALK6) ECD-Fc
  binding result: no binding (tested: 20 to 0.3 nM)
BMPRIa (ALK3) ECD-Fc
  binding result: no binding (tested: 20 to 0.3 nM)
MISRII ECD-Fc
  binding result: no binding (tested: 20 to 0.3 nM)
TGF-βRII ECD-Fc
  binding result: no binding (tested: 20 to 0.3 nM)

## B2
[1]
  binding result: no binding (tested: 20 to 0.3 nM)

## B3
[1]
  binding result: no binding (tested: 20 to 0.3 nM)

## B4
[1]
  binding result: no binding (tested: 20 to 0.3 nM)

## B5
[1]
  binding result: no binding (tested: 20 to 0.3 nM)
